Molecular target: T1, hTACI-Fc (soluble human TACI-Fc receptor fusion protein) (human, UniProt O14836 1-165)
T1 construct: also called shTACI-Fc; sTACI
T1 sequence: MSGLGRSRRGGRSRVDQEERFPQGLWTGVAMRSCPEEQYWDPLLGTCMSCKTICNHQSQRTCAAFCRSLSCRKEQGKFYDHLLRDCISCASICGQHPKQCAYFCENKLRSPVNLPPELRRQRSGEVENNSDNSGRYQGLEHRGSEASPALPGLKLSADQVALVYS
Assay: BIAcore 2000; TACI-Fc immobilised on CM5, Flag-APRIL as analyte, 1:1 Langmuir model

- Kd: 1.48 nM
B1: Soluble murine APRIL-Flag protein (FLAG-tagged soluble mouse G70) (ligand)
chain: KHKKKHSVLHLVPVNITSKADSDVTEVMWQPVLRRGRGLEAQGDIVRVWDTGIYLLYSQVLFHDVTFTMGQVVSREGQGRRETLFRCIRSMPSDPDRAYNSCYSAGVFHLHQGDIITVKIPRANAKLSLSPHGTFLGFV

From US20020086018A1 (published 2002)
